Results from publication PMC7511442.

Columns and labels:
[1] = target: GFP-GiKIN14a (recombinant full-length GiKIN14a with an N-terminal GFP) (Giardia intestinalis); test: hydrodynamic analysis
[2] = target: GFP-GiKIN14a-Δtail (Giardia intestinalis); test: hydrodynamic analysis
[3] = target: GFP-GiKIN14a-Δtail (Giardia intestinalis); test: single-molecule photobleaching

GFP-GiKIN14a (recombinant full-length GiKIN14a with an N-terminal GFP) (natural protein)
stoichiometry N [1]: 2

GFP-GiKIN14a-Δtail (domain or fragment)
stoichiometry N [2]: 2
stoichiometry N [3]: 2
